{"source": "patent US20090098123A1", "about": "(ROCKEFELLER UNIVERSITY, published 2009)", "key": {"human CD81 (human)": {"biological_target": "human CD81 (human) (UniProt P60033)", "experiment": "cell-based or functional assay"}, "[1]": {"biological_target": "GFP-CLDN1 with a single FLAG epitope inserted in EL1 at position F9 (human) (UniProt O95832)", "experiment": "cell-based or functional assay"}, "[2]": {"biological_target": "GFP-CLDN1 with a single FLAG epitope inserted in EL1 at position F8 (human) (UniProt O95832)", "experiment": "cell-based or functional assay"}, "[3]": {"biological_target": "GFP-CLDN1 with a single FLAG epitope inserted in EL1 at position F6 (human) (UniProt O95832)", "experiment": "cell-based or functional assay"}, "[4]": {"biological_target": "CLDN1 F10x3 (GFP-CLDN1 with a triple FLAG epitope inserted in EL1 at position F10) (human) (UniProt O95832)", "experiment": "cell-based or functional assay"}, "[5]": {"biological_target": "T1, J6/JFH HCVcc (cell culture infectious HCV particles of the chimeric genotype 2a J6/JFH genome) (Hepatitis C virus genotype 2a, isolate …, UniProt P26660 192-383; P26660 384-750)", "T1 construct": "A whole enveloped virion, not a single protein", "experiment": "HCVcc bound to transduced CHO cells 2 h at 37 C; cell-associated HCV RNA by real-time RT-PCR"}}, "data": [{"molecule": "JS81 anti-CD81 antibody (BD Pharmingen)", "values": [{"measurement": "time after the temperature shift at which antibody addition still gives half-maximal inhibition of HCVpp infection (synchronized infection)", "setting": "human CD81 (human)", "value": 18, "unit": "min"}]}, {"molecule": "anti-FLAG M2 monoclonal antibody (Sigma)", "values": [{"measurement": "reduction of HCVpp permissiveness (luciferase) of 293T cells expressing the clone, in the presence of antibody", "setting": "[1]", "value": "< 62", "unit": "%"}, {"measurement": "reduction of HCVpp permissiveness (luciferase) of 293T cells expressing the clone, in the presence of antibody", "setting": "[2]", "value": "< 45", "unit": "%"}, {"measurement": "reduction of HCVpp permissiveness (luciferase) of 293T cells expressing the clone, in the presence of antibody", "setting": "[3]", "value": "< 90", "unit": "%"}, {"measurement": "time after the temperature shift at which antibody addition still gives half-maximal inhibition of HCVpp infection (synchronized infection)", "setting": "[4]", "value": 73, "unit": "min"}]}, {"molecule": "human CLDN1 (Claudin-1), wild type (receptor, also called wild-type CLDN1) MANAGLQLLGFILAFLGWIGAIVSTALPQWRIYSYAGDNIVTAQAMYEGLWMSCVSQSTGQIQCKVFDSLLNLSSTLQATRALMVVGILLGVIAIFVATVGMKCMKCLEDDEVQKMRMAVIGGAIFLLAGLAILVATAWYGNRIVQEFYDPMTPVNARYEFGQALFTGWAAASLCLLGGALLCCSCPRKTTSYPTPRPYPKPAPSSGKDYV", "values": [{"measurement": "binding result", "setting": "[5]", "value": "no binding (tested: MOI ~0.5)"}]}, {"molecule": "human CD81 (receptor, whole, on cells) MGVEGCTKCIKYLLFVFNFVFWLAGGVILGVALWLRHDPQTTNLLYLELGDKPAPNTFYVGIYILIAVGAVMMFVGFLGCYGAIQESQCLLGTFFTCLVILFACEVAAGIWGFVNKDQIAKDVKQFYDQALQQAVVDDDANNAKAVVKTFHETLDCCGSSTLTALTTSVLKNNLCPSGSNIISNLFKEDCHQKIDDLFSGKLYLIGIAAIVVAVIMIFEMILSMVLCCGIRNSSVY", "values": [{"measurement": "binding result", "setting": "[5]", "value": "no binding (tested: MOI ~0.5)"}]}]}
